We go through eleven molecules from patent US20110294982A1 (Ablynx, published 2011).

B1: VHH-H6 (VHH)
VHH: QVQLQDSGGGLVQAGGSLRLSCEASGRTFSSYAMGWFRQPPGKEREWVSTISRSGSAIYAYPVKGRFTMSRDNAKNTVYLEMNSLKPEDTAVFYCAAARSGVPSSRPTDYDYWGQGTQVTVSS
notes: Used with a Myc tag (captured/detected with anti-Myc 9E10) and a C-terminal His6 tag (detected with anti-HIS6 (C-term)); also called H6-VHH
B2: 140-E10 (VHH)
VHH: EVQLVESGGGLVQAGESLKLSCVASGNILRVTSMGWGRQIPGKQRKLVAWITNEGRTEYADSVKGRFTISRDNAQNTLYLLMNSLKPEDTAVYYCYGFSPRESSGNTYWGQGTQVTVSS
B3: 140-A10 (VHH)
VHH: EVQLVESGGGLVQPGGSLRLSCAASGFTFSRMAMGWYRQAPGVERDFLAIISPGGGTNYADSVKGRFTISRDNAKNTVYLQMNSLKPEDTAVYYCNARNFEGRRVDYWGQGTQVTVSS
B4: 140-H8 (VHH)
VHH: EVQLVESGGGLVQAGGSLRLSCAASISANAIDVVSWYRQAPGKPRELAASITSAGRIKYAESVKGRFGISRDNAKNTVSLQMNSLKPEDTAVYYCNALYRNAIYWGQGTQVTVSS
B5: 140-D4 (VHH)
VHH: EVQLVESGGGLVEAGGSLRLSCATSGSTFGIEAMAWYRQAPGKQRELVATINSASRTNYADSVKGRFTISRDTGKSILYLQMNNLEPEDTAVYYCKITTPLPYRRDFWGQGTQVTVSS
B6: 140-F10 (VHH)
VHH: EVQLVESGGGSVQAGGSLRLSCAASQRTFSSDVMGWFRQAPGKERDFVAYIHRSGTTYYADSVKGRLTISRDNAKSTVYLQMNSLKPEDTAVYHCAAGRYGSTSDTLYDYWGQGTQVTVSS
B7: 140-B8 (VHH)
VHH: B6 VHH with S31R, I51S, L67F
B8: 140-A5 (VHH)
VHH: EVQLVESGGGSVQAGGSLRLSCAASGTTATITVPGWYRQAPGKQRELVAVINSGGTKKYADSVKGRFTISIDNVKRTLYLEMNSLRPEDTAVYYCSTLKYWGQGTQVTVSS
B9: 140-G8 (VHH)
VHH: EVQLVESGGGSVQAGGSLRLSCTASGSIFSINDMGWYRQPPGEQRELVATLTSSDSTKYADSVKSRFTISRDNAKNTVYLQMNSLKPEDTAVYYCNAVINRRGDGRNWSREYWGQGTQVTVSS
B10: 140-A2 (VHH)
VHH: EVQLVESGGGLVQAGGSLRLSCAASGSTYRLNNMAWYRQSPGKKRELVALISGITSDPSTYYLDSVRGRFSISRDNALNTVYLQMNSLKPEDTAVYYCKQAWAGVEYWGQGTQVTVSS
B11: 140-H10 (VHH)
VHH: EVPLVESGGGSVQAGGSLRLSCAASQRTFSRDVTGWFRQAPGKERDFVAYIHRSGETTYYADSVKGRFTISRDNAKSTVYLQMNSLKPEDTAVYHCAAGRYGSTSDTLYDYWGQGTQVTVSS

Numbering of substitutions follows the chain as printed.

T1 sequence (P08648 42-995 limits assumed, chain 1 of 2): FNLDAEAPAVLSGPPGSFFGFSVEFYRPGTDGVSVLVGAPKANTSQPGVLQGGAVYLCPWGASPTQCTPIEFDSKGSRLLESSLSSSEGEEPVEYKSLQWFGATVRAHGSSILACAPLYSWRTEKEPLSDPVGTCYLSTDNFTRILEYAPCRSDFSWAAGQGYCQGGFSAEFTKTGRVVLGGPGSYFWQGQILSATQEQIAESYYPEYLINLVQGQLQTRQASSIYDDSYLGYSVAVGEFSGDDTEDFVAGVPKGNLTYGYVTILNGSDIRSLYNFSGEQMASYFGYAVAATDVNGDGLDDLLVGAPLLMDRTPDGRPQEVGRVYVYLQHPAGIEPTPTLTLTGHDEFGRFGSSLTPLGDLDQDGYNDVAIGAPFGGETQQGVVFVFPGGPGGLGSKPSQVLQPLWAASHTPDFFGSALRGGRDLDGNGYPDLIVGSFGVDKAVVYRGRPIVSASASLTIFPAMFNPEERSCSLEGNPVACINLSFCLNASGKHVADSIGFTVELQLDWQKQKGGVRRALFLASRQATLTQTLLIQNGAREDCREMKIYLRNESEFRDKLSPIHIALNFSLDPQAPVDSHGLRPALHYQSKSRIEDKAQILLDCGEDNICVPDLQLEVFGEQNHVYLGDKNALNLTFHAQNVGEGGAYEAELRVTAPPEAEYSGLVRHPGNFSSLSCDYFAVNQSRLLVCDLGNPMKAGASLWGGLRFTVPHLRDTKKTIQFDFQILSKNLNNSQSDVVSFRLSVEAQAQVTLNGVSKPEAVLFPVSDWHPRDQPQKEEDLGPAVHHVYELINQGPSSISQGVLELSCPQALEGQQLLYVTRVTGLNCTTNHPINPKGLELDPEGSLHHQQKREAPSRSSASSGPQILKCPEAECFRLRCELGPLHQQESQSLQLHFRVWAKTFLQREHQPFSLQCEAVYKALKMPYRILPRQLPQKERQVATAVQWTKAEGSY
T1 sequence (P05556 21-728 limits assumed, chain 2 of 2): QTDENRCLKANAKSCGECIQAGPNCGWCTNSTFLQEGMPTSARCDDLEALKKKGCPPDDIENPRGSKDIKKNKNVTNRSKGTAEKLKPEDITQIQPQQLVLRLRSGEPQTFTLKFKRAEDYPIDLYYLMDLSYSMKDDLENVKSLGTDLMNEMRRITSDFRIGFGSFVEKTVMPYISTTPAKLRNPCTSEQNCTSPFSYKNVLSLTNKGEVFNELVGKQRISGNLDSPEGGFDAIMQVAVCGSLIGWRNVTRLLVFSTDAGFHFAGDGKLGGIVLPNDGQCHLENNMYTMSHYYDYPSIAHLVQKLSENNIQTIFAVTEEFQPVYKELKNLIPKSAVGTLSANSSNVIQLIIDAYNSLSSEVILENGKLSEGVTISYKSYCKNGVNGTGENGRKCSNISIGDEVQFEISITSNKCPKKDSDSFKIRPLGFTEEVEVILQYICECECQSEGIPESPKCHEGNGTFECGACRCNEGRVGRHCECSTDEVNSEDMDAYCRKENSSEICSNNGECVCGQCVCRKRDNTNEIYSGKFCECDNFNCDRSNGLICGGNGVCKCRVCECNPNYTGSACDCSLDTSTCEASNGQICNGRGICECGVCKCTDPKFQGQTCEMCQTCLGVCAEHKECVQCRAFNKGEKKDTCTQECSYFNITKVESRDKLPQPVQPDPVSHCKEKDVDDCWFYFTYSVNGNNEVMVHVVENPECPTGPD

One assay concerns the target T1, recombinant VLA-5 (α5β1 integrin) (UniProt P08648 42-995; P05556 21-728, limits assumed).
T1 construct: also called α5β1 (VLA-5) integrin; a5β1 integrin
The experiment in a line: ELISA, integrin coated at 0.5 µg/well. On the procedure: FIG. 3: Direct binding of VHH-H6 to recombinant α3β1 integrin. Recombinant VLA-3 (α3β1 integrin) or recombinant VLA-5 (a5β1 integrin) were coated into Maxisorb plates at 0.5 μg/well, and binding with VHH-H6 or no VHH (in which anti-Myc was used) was assayed in ELISA. Binding of the VHHs to the integrins is expressed as absorbance at 450 nm. Data represents the mean±standard deviation of three independent experiments
(An ELISA detects its analyte on a solid surface through an enzyme-linked reagent.)
In the case of B1, the binding result is recorded as “no binding”.

Another assay deals with T2, recombinant human alphavbeta6 (human, UniProt P06756 31-992; P18564 22-707, limits assumed).
T2 construct: Bought, carrier free (R&D Systems 3817-AV/CF); also called aVb6
T2 sequence (P06756 31-992 limits assumed, chain 1 of 2): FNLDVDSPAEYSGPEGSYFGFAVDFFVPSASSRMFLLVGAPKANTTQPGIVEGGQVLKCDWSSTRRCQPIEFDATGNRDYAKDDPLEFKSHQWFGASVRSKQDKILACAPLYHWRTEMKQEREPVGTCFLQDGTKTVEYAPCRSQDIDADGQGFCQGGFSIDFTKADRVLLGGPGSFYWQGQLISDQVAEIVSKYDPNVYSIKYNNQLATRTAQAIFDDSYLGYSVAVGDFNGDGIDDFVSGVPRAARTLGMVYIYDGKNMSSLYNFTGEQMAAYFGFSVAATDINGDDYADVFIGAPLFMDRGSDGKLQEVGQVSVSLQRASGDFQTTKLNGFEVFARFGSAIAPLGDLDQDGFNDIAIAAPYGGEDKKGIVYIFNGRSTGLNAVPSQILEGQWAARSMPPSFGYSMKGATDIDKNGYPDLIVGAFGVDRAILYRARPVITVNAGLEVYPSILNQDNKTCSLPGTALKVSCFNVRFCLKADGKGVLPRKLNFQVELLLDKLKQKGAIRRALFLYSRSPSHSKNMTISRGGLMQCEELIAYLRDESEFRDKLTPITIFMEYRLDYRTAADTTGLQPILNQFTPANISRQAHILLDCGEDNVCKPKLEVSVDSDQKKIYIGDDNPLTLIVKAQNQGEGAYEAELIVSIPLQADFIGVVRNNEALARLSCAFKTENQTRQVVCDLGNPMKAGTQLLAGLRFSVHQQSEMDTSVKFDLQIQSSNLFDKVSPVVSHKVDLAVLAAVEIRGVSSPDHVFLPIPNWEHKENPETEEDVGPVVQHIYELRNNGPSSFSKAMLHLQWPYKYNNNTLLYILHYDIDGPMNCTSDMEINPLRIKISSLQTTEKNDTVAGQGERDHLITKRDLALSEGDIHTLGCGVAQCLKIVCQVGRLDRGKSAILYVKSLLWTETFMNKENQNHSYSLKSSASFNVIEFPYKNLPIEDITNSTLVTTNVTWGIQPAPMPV
T2 sequence (P18564 22-707 limits assumed, chain 2 of 2): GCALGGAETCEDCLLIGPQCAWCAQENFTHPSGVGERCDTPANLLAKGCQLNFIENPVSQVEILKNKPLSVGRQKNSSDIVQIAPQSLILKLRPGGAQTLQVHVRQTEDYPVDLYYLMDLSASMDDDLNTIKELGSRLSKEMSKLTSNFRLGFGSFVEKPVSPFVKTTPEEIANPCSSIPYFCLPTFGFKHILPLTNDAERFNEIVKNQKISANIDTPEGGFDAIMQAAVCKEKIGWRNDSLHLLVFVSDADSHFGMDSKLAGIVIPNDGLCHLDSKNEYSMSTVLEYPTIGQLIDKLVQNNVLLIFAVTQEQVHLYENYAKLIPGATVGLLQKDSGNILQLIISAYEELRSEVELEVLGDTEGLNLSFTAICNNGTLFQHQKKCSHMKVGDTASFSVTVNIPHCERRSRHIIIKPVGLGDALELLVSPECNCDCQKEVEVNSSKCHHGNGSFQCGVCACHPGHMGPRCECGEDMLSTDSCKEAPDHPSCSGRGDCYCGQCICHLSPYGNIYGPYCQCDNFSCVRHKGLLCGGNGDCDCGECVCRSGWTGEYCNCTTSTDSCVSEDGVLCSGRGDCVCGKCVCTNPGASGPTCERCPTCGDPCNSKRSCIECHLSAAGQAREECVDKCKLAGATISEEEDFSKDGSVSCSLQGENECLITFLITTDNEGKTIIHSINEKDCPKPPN
The experiment in a line: specificity ELISA on coated integrins, periplasmic extract.
With B2, the binding result was “binds”.
Same read-out and setting: for B3 the value was “binds”.
Same read-out and setting: under B4 stands “binds”; under B5, “binds”; under B6, “binds”.
Same read-out and setting: under B7 stands “binds”; under B8, “binds”; under B9, “binds”.
In the case of B10, the binding result is “binds”.
Still for that read-out and setting: for B11 the value was “binds”.
